Results published in paper PMC6905856, “Movement of accessible plasma membrane cholesterol by the GRAMD1 lipid transfer protein complex” (eLife, 2019).

Target: the molecule itself
Assay: SEC; purified EGFP fusion of the luminal helix region alone on Superdex 200 increase 10/300 GL; 20 mM HEPES, 300 mM NaCl, 10% glycerol, 0.5 mM TCEP, pH 7.5; self-association judged from the elution volume

B1: EGFP-tagged luminal helix region of wild-type GRAMD1b (EGFP–helix: EGFP–GRAMD1b 674–718) (domain or fragment, human, UniProt Q3KR37-1 674-718, looked up)
chain: SQTEWAQLLESQQKYHDTELQKWREIIKSSVMLLDQMKDSLINLQ
notes: GRAMD1b, human, luminal helix region, residues 674-718; Predicted molecular weight ~35 kDa; also called EGFP-linker-GRAMD1b luminal helix; EGFP–(GGGS)3–GRAMD1b luminal helix (674–718); source: E. coli BL21-DE3 Rosetta, purified (Co-TALON or Ni-NTA, gel filtration on Superdex 200 increase); not shown: EGFP with (GGGS)3 linker, N-terminal, kept
**Q.** Does B1 bind?
**A.** Result: binds
